Source: the supplement of paper PMC10567573

B1: STK38L (parent)
chain: FCIDSENRIGNSGVEEIKGHPFFE

Variants of: B1
Test: protein stability index of a GFP-peptide fusion (GPS, HEK-293T) (PSI 1-6); higher = more stable
Conditions: c terminus: a fixed tail appended
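Also: lentivirally expressed fusions sorted by FACS into six bins by GFP to DsRed ratio, PSI derived from sequencing read proportions per bin multiplied by bin number.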

Compared with FCIDSENRYGNSGVEEIKGHPFFE [I9Y], FCIDSENRRGNSGVEEIKGHPFFE [I9R] is higher in protein stability index: 2.58 for the first, 2.71 for the second.

Going from FCIDSENRTGNSGVEEIKGHPFFE [I9T] to FCIDSENRVGNSGVEEIKGHPFFE [I9V], the protein stability index falls from 3.21 to 2.73.

Compared with FCIDSENRPGNSGVEEIKGHPFFE [I9P], FCIDSENRHGNSGVEEIKGHPFFE [I9H] is lower in protein stability index: 3.17 for the first, 2.9 for the second.

Compared with FCIDSENRIGNIGVEEIKGHPFFE [S12I], FCIDSENRIGNFGVEEIKGHPFFE [S12F] is lower in protein stability index: 2.35 for the first, 1.84 for the second.

First: FCIDSENRIGNKGVEEIKGHPFFE [S12K]
Second: FCIDSENRIGNQGVEEIKGHPFFE [S12Q]
The protein stability index of the first is higher: 2.78 for the first, 2.2 for the second.

First: FCIDSENRIGNNGVEEIKGHPFFE [S12N]
Second: FCIDSENRIGNWGVEEIKGHPFFE [S12W]
The protein stability index of the first is higher: 2.55 for the first, 1.5 for the second.

First: FCIDSENRIGNRGVEEIKGHPFFE [S12R]
Second: FCIDSENRIGNVGVEEIKGHPFFE [S12V]
The protein stability index of the first is higher: 2.35 for the first, 2 for the second.

Going from FCIDSENRIGNDGVEEIKGHPFFE [S12D] to FCIDSENRIGNLGVEEIKGHPFFE [S12L], the protein stability index falls from 2.32 to 1.9.

First: FCIDSENRIGNMGVEEIKGHPFFE [S12M]
Second: FCIDSENRIGNEGVEEIKGHPFFE [S12E]
The protein stability index of the first is lower: 1.72 for the first, 2.52 for the second.

First: FCIDSENRIGNTGVEEIKGHPFFE [S12T]
Second: FCIDSENRIGNAGVEEIKGHPFFE [S12A]
The protein stability index of the first is higher: 2.52 for the first, 1.98 for the second.

Going from FCIDSENRIGNPGVEEIKGHPFFE [S12P] to FCIDSENRIGNYGVEEIKGHPFFE [S12Y], the protein stability index falls from 2.32 to 1.99.

Compared with FCIDSENRIGNGGVEEIKGHPFFE [S12G], FCIDSENRIGNHGVEEIKGHPFFE [S12H] is higher in protein stability index: 1.91 for the first, 2.56 for the second.

First: FCIDSENRILNSGVEEIKGHPFFE [G10L]
Second: FCIDSENRIVNSGVEEIKGHPFFE [G10V]
The protein stability index of the first is higher: 1.96 for the first, 1.54 for the second.

First: FCIDSENRIMNSGVEEIKGHPFFE [G10M]
Second: FCIDSENRIFNSGVEEIKGHPFFE [G10F]
The protein stability index of the first is higher: 2.11 for the first, 1.57 for the second.

First: FCIDSENRIHNSGVEEIKGHPFFE [G10H]
Second: FCIDSENRIDNSGVEEIKGHPFFE [G10D]
The protein stability index of the first is lower: 2.71 for the first, 2.75 for the second.

Going from FCIDSENRIANSGVEEIKGHPFFE [G10A] to FCIDSENRIWNSGVEEIKGHPFFE [G10W], the protein stability index falls from 2.27 to 1.1.

Going from FCIDSENRITNSGVEEIKGHPFFE [G10T] to FCIDSENRIQNSGVEEIKGHPFFE [G10Q], the protein stability index rises from 2.38 to 3.48.

Compared with FCIDSENRINNSGVEEIKGHPFFE [G10N], FCIDSENRIPNSGVEEIKGHPFFE [G10P] is lower in protein stability index: 3.64 for the first, 2.31 for the second.

First: FCIDSENRICNSGVEEIKGHPFFE [G10C]
Second: FCIDSENRISNSGVEEIKGHPFFE [G10S]
The protein stability index of the first is lower: 2.32 for the first, 2.39 for the second.

Going from FCIDSENRIYNSGVEEIKGHPFFE [G10Y] to FCIDSENRIRNSGVEEIKGHPFFE [G10R], the protein stability index rises from 1.79 to 2.98.

Compared with FCIDSENRIKNSGVEEIKGHPFFE [G10K], FCIDSENRIENSGVEEIKGHPFFE [G10E] is higher in protein stability index: 2.53 for the first, 2.54 for the second.

Compared with FCIDSENRIINSGVEEIKGHPFFE [G10I], FCIDSENRIGNSFVEEIKGHPFFE [G13F] is higher in protein stability index: 1.87 for the first, 2.95 for the second.

First: FCIDSENRIGNSNVEEIKGHPFFE [G13N]
Second: FCIDSENRIGNSLVEEIKGHPFFE [G13L]
The protein stability index of the first is higher: 2.73 for the first, 2.22 for the second.

Compared with FCIDSENRIGNSEVEEIKGHPFFE [G13E], FCIDSENRIGNSWVEEIKGHPFFE [G13W] is lower in protein stability index: 3.12 for the first, 2.87 for the second.

Compared with FCIDSENRIGNSYVEEIKGHPFFE [G13Y], FCIDSENRIGNSPVEEIKGHPFFE [G13P] is higher in protein stability index: 2.28 for the first, 2.68 for the second.

Going from FCIDSENRIGNSVVEEIKGHPFFE [G13V] to FCIDSENRIGNSAVEEIKGHPFFE [G13A], the protein stability index rises from 1.97 to 2.07.

First: FCIDSENRIGNSMVEEIKGHPFFE [G13M]
Second: FCIDSENRIGNSTVEEIKGHPFFE [G13T]
The protein stability index of the first is lower: 2.12 for the first, 2.75 for the second.

Compared with FCIDSENRIGNSIVEEIKGHPFFE [G13I], FCIDSENRIGNSRVEEIKGHPFFE [G13R] is lower in protein stability index: 2.47 for the first, 2.26 for the second.

First: FCIDSENRIGNSCVEEIKGHPFFE [G13C]
Second: FCIDSENRIGNSDVEEIKGHPFFE [G13D]
The protein stability index of the first is lower: 2.1 for the first, 2.55 for the second.

Going from FCIDSENRIGNSKVEEIKGHPFFE [G13K] to FCIDSENRIGNSHVEEIKGHPFFE [G13H], the protein stability index rises from 2.44 to 2.56.

Going from FCIDSENRIGNSQVEEIKGHPFFE [G13Q] to FCIDSENRIGNSGVELIKGHPFFE [E16L], the protein stability index falls from 2.44 to 1.79.

Going from FCIDSENRIGNSGVEQIKGHPFFE [E16Q] to FCIDSENRIGNSGVESIKGHPFFE [E16S], the protein stability index falls from 2.54 to 1.85.

Going from FCIDSENRIGNSGVEVIKGHPFFE [E16V] to FCIDSENRIGNSGVEAIKGHPFFE [E16A], the protein stability index rises from 1.87 to 3.21.

First: FCIDSENRIGNSGVERIKGHPFFE [E16R]
Second: FCIDSENRIGNSGVEIIKGHPFFE [E16I]
The protein stability index of the first is higher: 2.3 for the first, 1.55 for the second.

Going from FCIDSENRIGNSGVEKIKGHPFFE [E16K] to FCIDSENRIGNSGVEFIKGHPFFE [E16F], the protein stability index rises from 1.98 to 2.25.

First: FCIDSENRIGNSGVEGIKGHPFFE [E16G]
Second: FCIDSENRIGNSGVEDIKGHPFFE [E16D]
The protein stability index of the first is higher: 2.67 for the first, 1.89 for the second.

Going from FCIDSENRIGNSGVEMIKGHPFFE [E16M] to FCIDSENRIGNSGVEYIKGHPFFE [E16Y], the protein stability index falls from 2.28 to 1.51.

Going from FCIDSENRIGNSGVEHIKGHPFFE [E16H] to FCIDSENRIGNSGVEPIKGHPFFE [E16P], the protein stability index rises from 2.22 to 2.42.

Going from FCIDSENRIGNSGVENIKGHPFFE [E16N] to FCIDSENRIGNSGVETIKGHPFFE [E16T], the protein stability index rises from 2.06 to 2.35.

First: FCIDSENRIGNSGVEWIKGHPFFE [E16W]
Second: FCIDSENRIGNSGVECIKGHPFFE [E16C]
The protein stability index of the first is lower: 1.44 for the first, 2.23 for the second.

Compared with FCIDSENRIGNSGVEESKGHPFFE [I17S], FCIDSENRIGNSGVEEKKGHPFFE [I17K] is lower in protein stability index: 3.17 for the first, 2.35 for the second.

Compared with FCIDSENRIGNSGVEEEKGHPFFE [I17E], FCIDSENRIGNSGVEELKGHPFFE [I17L] is lower in protein stability index: 3.47 for the first, 2.61 for the second.

Compared with FCIDSENRIGNSGVEENKGHPFFE [I17N], FCIDSENRIGNSGVEEFKGHPFFE [I17F] is lower in protein stability index: 2.88 for the first, 2.36 for the second.

Compared with FCIDSENRIGNSGVEEMKGHPFFE [I17M], FCIDSENRIGNSGVEEGKGHPFFE [I17G] is lower in protein stability index: 2.79 for the first, 2.38 for the second.

Going from FCIDSENRIGNSGVEEPKGHPFFE [I17P] to FCIDSENRIGNSGVEECKGHPFFE [I17C], the protein stability index rises from 2.54 to 2.84.

Going from FCIDSENRIGNSGVEERKGHPFFE [I17R] to FCIDSENRIGNSGVEEQKGHPFFE [I17Q], the protein stability index rises from 2.1 to 2.53.

Compared with FCIDSENRIGNSGVEEHKGHPFFE [I17H], FCIDSENRIGNSGVEEDKGHPFFE [I17D] is higher in protein stability index: 2.16 for the first, 3.1 for the second.
